Source: patent US20210347908A1 (ELPISCIENCE SUZHOU BIOPHARMA, published 2021)
Numbering of substitutions follows the chain as printed.

T1: full length C57BL/6 mouse SIRPα stably expressed on CHOK1 cells (mouse (C57BL/6), UniProt P97797 32-513)
T1 construct: whole, on cells; also called CHOK1-C57BL/6 mouse SIRPα-2.22 cells
T1 sequence (looked up): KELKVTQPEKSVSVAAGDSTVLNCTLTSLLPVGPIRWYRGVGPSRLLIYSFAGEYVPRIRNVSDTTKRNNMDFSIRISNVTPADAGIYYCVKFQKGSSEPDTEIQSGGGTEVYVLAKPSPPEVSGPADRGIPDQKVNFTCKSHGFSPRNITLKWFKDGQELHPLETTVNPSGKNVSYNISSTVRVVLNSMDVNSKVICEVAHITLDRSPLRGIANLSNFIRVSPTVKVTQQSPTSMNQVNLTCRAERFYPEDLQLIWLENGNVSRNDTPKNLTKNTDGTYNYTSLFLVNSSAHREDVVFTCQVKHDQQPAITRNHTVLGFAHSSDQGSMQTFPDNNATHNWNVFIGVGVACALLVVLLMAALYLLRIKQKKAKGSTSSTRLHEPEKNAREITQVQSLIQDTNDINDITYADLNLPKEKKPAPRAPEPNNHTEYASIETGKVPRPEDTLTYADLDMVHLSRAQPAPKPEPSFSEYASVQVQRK

T2: full length cyno SIRPα stably expressed on CHOK1 cells (cynomolgus monkey, UniProt A0A2K5VYQ9 31-507)
T2 construct: whole, on cells; also called CHOK1-cyno SIRPα-2A2 cells; CHOK1-cyno SIRPα
T2 sequence: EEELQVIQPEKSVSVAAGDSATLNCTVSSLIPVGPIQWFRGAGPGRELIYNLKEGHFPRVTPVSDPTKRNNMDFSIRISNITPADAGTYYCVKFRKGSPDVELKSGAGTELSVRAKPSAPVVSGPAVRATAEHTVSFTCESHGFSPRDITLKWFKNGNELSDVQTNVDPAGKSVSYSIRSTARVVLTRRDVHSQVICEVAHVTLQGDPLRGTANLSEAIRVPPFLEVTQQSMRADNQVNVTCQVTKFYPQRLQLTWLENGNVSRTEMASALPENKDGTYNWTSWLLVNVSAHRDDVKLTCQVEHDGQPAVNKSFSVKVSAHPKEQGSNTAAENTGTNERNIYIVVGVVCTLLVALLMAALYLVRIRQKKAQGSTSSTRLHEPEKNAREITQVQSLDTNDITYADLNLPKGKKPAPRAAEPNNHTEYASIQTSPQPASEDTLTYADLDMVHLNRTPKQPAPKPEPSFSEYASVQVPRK

B1: Antibody 001 (hybridoma antibody) (antibody, V domains shown)
VH: EVKLEESGGGLVQPGGSMKLSCVASGFTFRNYWMNWVRQSPERGLEWIAEISLKSNTYATHYAESVKGRFAISRDGSKSSFYLQMNDLRAEDTGIYYCTTFTKVVADWHLDVWGAGTTVTVSS
VL: DVLMTQTPLSLPVSLGDQASISCRSSQNIVHSNGNTYLEWYLQKPGQSPKLLIYKVSNRFSGVPDRFSGSGSGTDFTLRISRVEAEDLGVYYCFQGSHVPFTFGSGTKLEIK
notes: mouse hybridoma antibody
B2: Antibody 002 (hybridoma antibody) (antibody, V domains shown)
VH: B1 VH with K19I, S52T, G76D, A90P
VL: B1 VL with V56I, K112Q
notes: mouse hybridoma antibody
B3: Antibody 032 (hybridoma antibody) (antibody, V domains shown)
VH: B1 VH with K3R, A24V, S52T, G76D, A90P
VL: B1 VL with S14N
notes: mouse hybridoma antibody
B4: reference antibody HEFLB (antibody, V domains shown)
VH: EVQLVQSGAEVKKPGESLRISCKASGYSFTSYWVHWVRQMPGKGLEWMGNIDPSDSDTHYSPSFQGHVTLSVDKSISTAYLQLSSLKASDTAMYYCVRGGTGTLAYFAYWGQGTLVTVSS
VL: DVVMTQSPLSLPVTLGQPASISCRSSQSLVHSYGNTYLYWFQQRPGQSPRLLIYRVSNRFSGVPDRFSGSGSGTDFTLKISRVEAEDVGVYYCFQGTHVPYTFGGGTKVEIK
B5: Antibody 035 (hybridoma antibody) (antibody, V domains shown)
VH: QIQLVQSGPELRKPGETVKISCKASGYSFTNYAMNWVKQAPGKVLKWMGFINTYTGEPTYADDFKGRFAFSLETSASTAYLQINNLKNEDTATYFCTRTRGYYDFDGGAFDYWGQGTSLTVSS
VL: DIVMTQSQKFMSTSIGDRVSVTCKASQNVGTHLAWYQQKPGQSPKALIFSASYRYIGVPDRFTGSGSGTDFTLTITNVQSEDLAEYFCQQYNTYPLTFGAGTKLELK
notes: mouse hybridoma antibody
B6: Antibody 074 (hybridoma antibody) (antibody, V domains shown)
VH: QVQLQQPRAELVKPGASVMLSCKASGYTFSSYWIHWVRQGPGQGLEWIGLIHPNSGNTDCSETFKNKATLTVDTSSSTAYMQLSSLASEDSAVYYCARDGASYDWFVHWGQGTLVTVSA
VL: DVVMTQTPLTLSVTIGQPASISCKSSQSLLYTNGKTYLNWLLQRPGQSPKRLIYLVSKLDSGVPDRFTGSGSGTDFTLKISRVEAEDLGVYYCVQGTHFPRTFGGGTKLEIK
notes: mouse hybridoma antibody
B7: Antibody 022 (hybridoma antibody) (antibody, V domains shown)
VH: QIQLVQSGPELKKPGETVKISCKASGYTFTDYAMHWVKQAPGKGLKWMGWKNTETGESTYAEDFKGRFAFFLETSASTAYLQINNVKNEDTATYFCARGGYGSNYVMDYWGQGTSVIVSS
VL: DIQMTQSSSSFSVSLGDRVTITCKASEDIYNRLAWYQQKPGNAPRLLISGATSLETGVPSRFSGSGSGKDYTLSITSLQTEDVATYYCQQYWNSPRTFGGGTKLEIK
notes: mouse hybridoma antibody
B8: Antibody 050 (hybridoma antibody) (antibody, V domains shown)
VH: QIQLVQSGPELKKPGETVKISCKASGYTFTHYSMHWVKQAPGKGLKWMGWINTETAEPTYVDDFKGRFAFSLEASASTAFFQINNLKNEDTATYFCARGGLRQGDYWGQGTTLTVSS
VL: QIVLTQSPPIMSASPGEKVTLTCSATSSVSASYLYWFQQKPGSSPKLWIYSTSNLASGVPARFSGSGSGTSYSLTISNMEPADAASYFCHQWSSYPYTFGGGTKLEIK
notes: mouse hybridoma antibody
B9: Antibody 060 (hybridoma antibody) (antibody, V domains shown)
VH: QVQLKESGPGLVAPSESLSITCTVSGFSLTNYDISWIRQSPGKGLEWLGVIWTGGDTNFNSAFMSRLSISKDKSKSQVFLKLNSLQTDDTAIYYCVRVQYFGGSYGPMDYWGQGISVTVSS
VL: DIQMTQASSYLSVSLGGRVTITCEASDHINDWLAWYQQTPGNAPRLLISGATSLETGVPSRFSGSGSGKDYTLSITSLQTEDIATYYCQQYWNTPLTFGAGTRLELK
notes: mouse hybridoma antibody
B10: chimeric antibody 001c (antibody, V domains shown)
VH: B1 VH
VL: B1 VL
B11: chimeric antibody 002c (antibody, V domains shown)
VH: B1 VH with K19I, S52T, G76D, A90P
VL: B1 VL with V56I, K112Q
B12: chimeric antibody 032c (antibody, V domains shown)
VH: B1 VH with K3R, A24V, S52T, G76D, A90P
VL: B1 VL with S14N
B13: chimeric antibody 050c (antibody, V domains shown)
VH: B8 VH
VL: B8 VL
B14: chimeric antibody 060c (antibody, V domains shown)
VH: B9 VH
VL: B9 VL
B15: chimeric antibody 074c (antibody, V domains shown)
VH: B6 VH
VL: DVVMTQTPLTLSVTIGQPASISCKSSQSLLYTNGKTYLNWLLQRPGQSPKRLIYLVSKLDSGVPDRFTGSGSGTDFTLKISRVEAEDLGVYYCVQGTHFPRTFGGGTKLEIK
B16: chimeric antibody 055c (antibody, V domains shown)
VH: EVKLVESEGGLVQPGDSMKLSCTASGFTFSDYFMTWIRQVPEKGLEWIANVNYDGRSTYYLDSLKSRFIISRDNANNILYLQMSSLKSEDTATYYCAREGSQTPLYAVDYWGQGTSVTVSS
VL: DIVMTQSQKFMSTTVGDRVNITCKASQNVGTAVAWYQQKPGQSPKLLIYLASNRYTGVPDRFTGSGSGTDFTLTVSDMRSEDLADYFCQQYSIYPFTFGSGTKLEIK

These binders were tested against T3, biotin labeled soluble human SIRPα v1 ECD recombinant protein (human, UniProt P78324 31-373, biotin labeled) (assay: competitive ELISA; competitor KWAR23).
T3 construct: extracellular domain
Procedure: (§1) Competitive ELISA assay was used for epitope binning of 9 functional antibodies. Briefly excessive competitor antibody and biotin labeled soluble human SIRPα v1 ECD recombinant protein were co-incubated with ELISA microplate coated antibody. After washing, HRP-SA was added and incubated at 37° C. for 1 hour. Then, […] of TMB solution (Biotechnology) was added. After incubation for 15 minutes at room temperature, the reaction was stopped by the addition of […] of 1N HCl. OD 450 nm was read. Competition ratio was calculated. The antibodies that can compete each other for binding to SIRPα have the similar binding epitope.

T3 sequence (P78324 31-373): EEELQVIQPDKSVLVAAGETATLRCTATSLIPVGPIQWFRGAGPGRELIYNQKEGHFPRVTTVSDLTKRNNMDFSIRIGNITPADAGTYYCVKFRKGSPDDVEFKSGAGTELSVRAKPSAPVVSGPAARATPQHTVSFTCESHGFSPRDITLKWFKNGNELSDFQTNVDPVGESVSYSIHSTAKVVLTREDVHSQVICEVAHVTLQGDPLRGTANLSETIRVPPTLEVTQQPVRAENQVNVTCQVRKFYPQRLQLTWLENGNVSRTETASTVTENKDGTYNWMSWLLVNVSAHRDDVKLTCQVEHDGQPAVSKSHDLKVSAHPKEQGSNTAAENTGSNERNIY

Compared with B1, B2 is lower in “% Competition” value: 83% for the first, 71% for the second.

First: B3
Second: B4
The “% Competition” value of the first is lower: 69% for the first, 94% for the second.

Going from B5 to B6, the “% Competition” value falls from -6% to -14%.

Compared with B7, B8 is lower in “% Competition” value: 1% for the first, 0% for the second.

With B9 the “% Competition” value was -4%.

These binders were tested against T1, full length C57BL/6 mouse SIRPα stably … (assay: FACS on CHOK1 cells).

B1: no binding (tested: 100 nM).
B2: no binding (tested: 100 nM).
B3: no binding (tested: 100 nM).
B6: no binding (tested: 100 nM).
B7: no binding (tested: 100 nM).
B8: no binding (tested: 100 nM).
B9: no binding (tested: 100 nM).

These binders were tested against T2, full length cyno SIRPα stably expressed … (assay: FACS on CHOK1 cells).

Going from B1 to B2, the “MFI at 10 nM” value falls from 8030 MFI to 7540 MFI.

Compared with B3, B5 is higher in “MFI at 10 nM” value: 6860 MFI for the first, 8310 MFI for the second.

Compared with B6, B7 is lower in “MFI at 10 nM” value: 14300 MFI for the first, 6430 MFI for the second.

For B8, the “MFI at 10 nM” value was 13600 MFI.

B4: no binding (tested: 10 nM).
B9: no binding (tested: 10 nM).

Each binder was assayed against T3, biotin labeled soluble human SIRPα v1 … (assay: competitive ELISA; competitor 001).
Procedure: as §1

Going from B1 to B2, the “% Competition” value falls from 96% to 94%.

First: B3
Second: B4
The “% Competition” value of the first is higher: 94% for the first, 89% for the second.

First: B5
Second: B6
The “% Competition” value of the first is higher: 92% for the first, 33% for the second.

B7 and B8 are the same in “% Competition” value: 2% for the first, 2% for the second.

In the case of B9, the “% Competition” value is reported as 0%.

The binders below were run against T4, Fc tagged human SIRPβ ECD recombinant protein (human, UniProt O00241 30-371) (assay: ELISA).
T4 construct: range 1-371; cloned range includes the signal peptide; also called hSIRPβ; not shown: human IgG Fc region (hFc) of the pCPC vector
Method in brief: (§2)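 Purified hybridoma or chimeric antibodies were incubated on antigen-coated plates for 1 hour at 37° C. Bound antibody was detected with HRP-labeled anti-mouse or anti-human IgG (1 hour, 37° C.), then TMB for 15 minutes at room temperature, stopped with 1N HCl. EC₅₀ derived from OD 450 nm.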

T4 sequence (O00241 30-371 limits assumed, form in doubt): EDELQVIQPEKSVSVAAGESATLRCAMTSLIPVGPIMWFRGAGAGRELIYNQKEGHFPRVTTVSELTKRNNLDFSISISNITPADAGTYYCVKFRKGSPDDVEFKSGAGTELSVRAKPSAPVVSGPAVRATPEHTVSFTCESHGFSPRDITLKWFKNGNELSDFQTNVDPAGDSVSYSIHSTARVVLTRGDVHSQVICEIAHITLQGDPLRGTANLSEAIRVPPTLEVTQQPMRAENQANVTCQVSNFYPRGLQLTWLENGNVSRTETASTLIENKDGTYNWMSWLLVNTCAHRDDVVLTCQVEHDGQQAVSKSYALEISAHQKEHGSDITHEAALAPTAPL

B10 and B11 are within 1.5-fold of each other in EC50: 0.12 nM for the first, 0.11 nM for the second.

Compared with B12, B13 is 1.5-fold lower in EC50: 0.12 nM for the first, 0.08 nM for the second. The second is the more potent here.

Compared with B14, B15 is 2.2-fold lower in EC50: 0.24 nM for the first, 0.11 nM for the second. The second is the more potent here.

Work on B4 yielded an EC50 of 0.08 nM.

Each binder was assayed against T5, Fc tagged human SIRPα v2 ECD recombinant protein (human) (assay: ELISA).
T5 construct: range 1-369; cloned range M1-R369 includes the signal peptide; also called hSIRPα V2
Method in brief: as §2

First: B10
Second: B11
The EC50 of the first is 1.5-fold higher: 0.09 nM for the first, 0.06 nM for the second. The second is the more potent here.

B12 and B13 are within 1.5-fold of each other in EC50: 0.11 nM for the first, 0.1 nM for the second.

B16 and B15 are within 1.5-fold of each other in EC50: 0.11 nM for the first, 0.14 nM for the second.

The binders below were run against T3, biotin labeled soluble human SIRPα v1 … (assay: competitive ELISA; competitor 002).
Procedure: as §1

Compared with B1, B2 is lower in “% Competition” value: 95% for the first, 90% for the second.

First: B3
Second: B4
The “% Competition” value of the first is higher: 93% for the first, 81% for the second.

Going from B5 to B6, the “% Competition” value falls from 86% to 14%.

Compared with B7, B8 is lower in “% Competition” value: 6% for the first, 3% for the second.

For B9, the “% Competition” value was 1%.
